First the molecules themselves.
T1: Aβ fragment 1-16 (human)
T1 construct: also called Aβ1-16; Aβ16
T1 peptide: DAEFRHDSGYEVHHQK

T2: Aβ fragment 29-40 (human)
T2 peptide: GAIIGLMVGGVV

B1: VHH R3VQ (VHH)
VHH: EVQLQASGGGLVQTGDSLRLSCADSGSTFRNYNIGWFRQTPGQAREFVAAVSRTGISTHVADSLQGRFTISRDNAKNTVYLQMNSLKPEDTAVYSCAAGRPGVGAVNRAMDYDYWGQGTQVTVSS
notes: Alpaca VHH, monomeric; Expressed with a His-tag or a Strep-tag; also called R3VQ(His)-NH2 1; R3VQ-NH2 1; not shown: 6-Histidine tag (vector pET23) or Streptavidin-tag (vector pASK IBA2)
B2: R3VQ(His)-N-(DOTA/Gd) conjugate 2d (VHH)
VHH: B1 VHH
modifications: DOTA/Gd randomly on lysine residues; average Gd/protein (1) 2 (3)
notes: Non-site-specific conjugate of R3VQ(His)-NH2 1; not shown: 6-Histidine tag from modified vector pET23
B3: R3VQ(His)-N-(DOTA/Gd) conjugate 2c (VHH)
VHH: B1 VHH
modifications: DOTA/Gd randomly on lysine residues; average Gd/protein (1) 2 (3)
notes: as for B2
B4: Aβ 16-35 (peptide)
peptide: KLVFFAEDVGSNKGAIIGLM
notes: This fragment is not in the list of fragments said to be tested (1-16, 10-20, 15-25, 22-35, 29-40)

The target of assay [1] is T1, Aβ fragment 1-16. The assay is described as follows: competitive inhibition ELISA with soluble Aβ fragments. How it is done:
(§1) The binding affinity of VHHs was determined as previously described (Friguet B. et al., 1985, Immunol Methods, 77:305-19). Briefly, various concentrations of Aβ peptides (Aβ fragments 1-16, 10-20, 15-25, 22-35 and 29-40) were incubated in solution overnight at 4° C. with a known quantity of VHH until equilibrium was reached. The VHH concentration used was deteimined by preliminary ELISA calibrations. Each mixture (100 μl) was transferred to a well of a microtiter plate previously coated with antigen and was incubated for 20 min at 4° C. The plates were washed with buffer 0.1% Tween 20 in PBS and bound VHHs were detected by adding beta-galactosidase-conjugated goat anti-rabbit Igs (Biosys, Compiegne, France) and 4-methylumbelliferyl […] (Sigma). Fluorescence was read (Fluoroskan, Labsystem, Finland) at 460 nm, after excitation at 355 nm. KD was estimated from the slope of the regression curve obtained by plotting the reciprocal of the fraction of bound antibody versus the reciprocal of the molar concentration of antigen.

For assay [2], the target named is T2, Aβ fragment 29-40. The assay is described as above. Here is the method: as §1
The target of assay [3] is T3, A-beta 42 peptide (Aβ42) (human).
T3 construct: Synthetic peptide (Bachem); on the western blot it ran as monomers, dimers and trimers; also called Aβ1-42; amyloid β peptide 42
T3 sequence (peptide, as listed by the source): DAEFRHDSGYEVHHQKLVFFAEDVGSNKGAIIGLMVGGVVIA
Put plainly: competition ELISA in solution (method of Friguet et al.). A general note: In an ELISA, binding on a coated surface is turned into a signal by an enzyme label.

Assay [4] concerns the target T4, A-beta 40 peptide (Aβ40) (human, biotinylated when bound to the streptavidin-coated ELISA plate).
T4 construct: Aβ42 without the C-terminal amino acids IA; The ELISA methods say A-beta 40 or A-beta 42 (preferably A-beta 40); also called Aβ1-40
The assay is described as follows: ELISA on plate-bound Aβ.

For assay [5], the target named is B1. Put plainly: competitive inhibition ELISA, soluble peptide against plate-coated Aβ antigen. How it is done: as §1

T4 sequence (peptide, as listed by the source): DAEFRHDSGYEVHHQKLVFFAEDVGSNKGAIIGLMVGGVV

B1: the binding result in assay [1] and in assay [2] was “no binding” throughout. Further, the dissociation constant (Kd) in assay [3] worked out at 0.017 µM. As for B2, the “binding in ELISA compared to the original VHH 1” value in assay [4] is approximately 10%.

As to B3, the “binding in ELISA compared to the original VHH 1” value in assay [4] is approximately 10%. Take B4: in assay [5], the IC50 worked out at 0.016 µM.

A word on the Kd: it is the constant that tells how readily two partners part at equilibrium. A low value points to a tighter complex. One may read the IC50 as the point on the concentration scale where inhibition reaches its midpoint.

The values above are taken from patent publication US20160355575A1 (Hoffmann-La Roche, published 2016).
